± gives the standard deviation of the averaged measurements.

This data set relates to Saccharomyces cerevisiae. As to the kind of experiment: protein stability index of tFT-peptide fusion (C-terminal peptide) (PSI (0-1 scale)); higher = more stable (slower turnover). As to conditions: temperature: 30 C. On the procedure:
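MPS profiling in S. cerevisiae of the yeast C-terminome library: the last 12 aa of each annotated ORF are fused to the C-terminus of a sfGFP-mCherry timer, after a GGGS linker. Cells are FACS-sorted into 8 mCherry/sfGFP bins and deep-sequenced. PSI runs from 0 (unstable) to 1 (stable); wild type and das1Δ backgrounds, two technical replicates each.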

[1] abbreviates: genetic background: das1 deletion.

On to KNVMRRGQFMKR [GRC3 C-terminal 12 aa], for which the protein stability index is 0.681 ± 0.013 under setting [1] and 0.753 ± 0.048 (genetic background: wild type).
In the case of KPSAKPVDLSKL [DAL7 C-terminal 12 aa], the protein stability index reads like this: under setting [1], 0.759 ± 0.011; (genetic background: wild type) 0.846 ± 0.069.
In turn, KPTASSSRKMFR [DUO1 C-terminal 12 aa] came in with a protein stability index under setting [1] of 0.7169 ± 0.0025 and a protein stability index (genetic background: wild type) of 0.722 ± 0.051.
As to KQKAFIQPKLVF [UTP4 C-terminal 12 aa], the protein stability index reads like this: under setting [1], 0.691 ± 0.018; (genetic background: wild type) 0.692 ± 0.017.
Taken in the same sequence, the figures for KQKALRGEFGAF [RNA15 C-terminal 12 aa] were 0.709 ± 0.011 and 0.688 ± 0.01.
KQNSSITQKNSS [EPL1 C-terminal 12 aa]: the protein stability index stood at 0.71115 ± 0.00071 under setting [1] and 0.697 ± 0.031 (genetic background: wild type).
Regarding KQVNEDADSDLL [KEL1 C-terminal 12 aa], the protein stability index is, setting by setting: under setting [1], 0.6784 ± 0.0013; (genetic background: wild type) 0.682 ± 0.013.
Regarding “KRMALFVQEKLA [YFL031C-A C-terminal 12 aa]”, the protein stability index by setting is: under setting [1], 0.717 ± 0.0081; (genetic background: wild type) 0.18 ± 0.0051.
Turning to “KRPPLPNMSFSW [YLL019W-A C-terminal 12 aa]”, the protein stability index reads like this: under setting [1], 0.776 ± 0.025; (genetic background: wild type) 0.728 ± 0.028.
As to KRTKTKITSNNG [YBR190W C-terminal 12 aa], the protein stability index runs as follows: under setting [1], 0.711 ± 0.012; (genetic background: wild type) 0.69 ± 0.018.
Taken in the same sequence, the figures for KSEVERVYKENS [FAA3 C-terminal 12 aa] were 0.718 ± 0.0093 and 0.6803 ± 0.0059.
For KSLAECQELLKN [TPD3 C-terminal 12 aa], the protein stability index came out at 0.687 ± 0.0072 under setting [1] and 0.663 ± 0.061 (genetic background: wild type).
Turning to KTITIGNLPNSI [UGA2 C-terminal 12 aa], the protein stability index stood at 0.7224 ± 0.0026 under setting [1] and 0.715 ± 0.026 (genetic background: wild type).
On the same counts, the results for KTPNTKRRKTHK [HAS1 C-terminal 12 aa] are 0.745 ± 0.024 and 0.75 ± 0.036.
On the same counts, the results for KTTPRNVELFGM [DXO1 C-terminal 12 aa] are 0.678 ± 0.021 and 0.693 ± 0.018.
As to KVCVCMTINSYN [YDR154C C-terminal 12 aa], the protein stability index worked out at 0.585 ± 0.027 under setting [1] and 0.583 ± 0.018 (genetic background: wild type).
The sequence “KVTKAAQKAAKK [YPR080W; YBR118W C-terminal 12 aa]” returned a protein stability index under setting [1] of 0.678 ± 0.0078 and a protein stability index (genetic background: wild type) of 0.696 ± 0.012.
On the same counts, the results for KWCASYSAGNRR [YLR280C C-terminal 12 aa] are 0.709 ± 0.017 and 0.6752 ± 0.0061.
With KYESATASALVN [RPS13 C-terminal 12 aa], the protein stability index reads like this: under setting [1], 0.697 ± 0.019; (genetic background: wild type) 0.702 ± 0.015.
On the same counts, the results for KYFHEDVSEDAY [MET5 C-terminal 12 aa] are 0.707 ± 0.028 and 0.699 ± 0.013.
On the same counts, the results for LADEEDAIHDEL [PDI1 C-terminal 12 aa] are 0.68604 ± 0.00055 and 0.678 ± 0.023.
Taken in the same sequence, the figures for LAEVIGVLLKDM [AIM10 C-terminal 12 aa] were 0.69483 ± 0.00037 and 0.646 ± 0.038.
LDAILLDIICND [MDM1 C-terminal 12 aa] had a protein stability index under setting [1] of 0.697 ± 0.0082 and a protein stability index (genetic background: wild type) of 0.735 ± 0.045.
LEEVEVNDFIQE [SWM2 C-terminal 12 aa] gave a protein stability index under setting [1] of 0.7099 ± 0.0036 and a protein stability index (genetic background: wild type) of 0.682 ± 0.02.
As to LEKEKLFNNGNH [PRI2 C-terminal 12 aa], the protein stability index by setting is: under setting [1], 0.722 ± 0.053; (genetic background: wild type) 0.722 ± 0.055.
Taken in the same sequence, the figures for LEKLCQKQSSTK [CMC1 C-terminal 12 aa] were 0.724 ± 0.022 and 0.712 ± 0.066.
Consider LELCKLASNNLE [RRI2 C-terminal 12 aa], for which the protein stability index reads like this: under setting [1], 0.6896 ± 0.0022; (genetic background: wild type) 0.703 ± 0.04.
Taken in the same sequence, the figures for LELQSRIESYLF [CNN1 C-terminal 12 aa] were 0.703 ± 0.0072 and 0.715 ± 0.047.
Taken in the same sequence, the figures for LERIVGLLLMDM [MHF2 C-terminal 12 aa] were 0.6675 ± 0.0051 and 0.651 ± 0.011.
On the same counts, the results for LFFGGEKVHSLK [NGL3 C-terminal 12 aa] are 0.7279 ± 0.0017 and 0.715 ± 0.026.
Regarding LFYNIRCLGKQF [YAR030C C-terminal 12 aa], the protein stability index under setting [1] was found to be 0.707 ± 0.011 and the protein stability index (genetic background: wild type) is 0.3967 ± 0.0018.
On the same counts, the results for LFYQTIGEFASL [ATF2 C-terminal 12 aa] are 0.706 ± 0.01 and 0.721 ± 0.037.
On the same counts, the results for LGKGGKGKRKMK [LSO2 C-terminal 12 aa] are 0.705 ± 0.027 and 0.64 ± 0.018.
With LGNNAVGLAKAI [PEP4 C-terminal 12 aa], the protein stability index under setting [1] turned out to be 0.7 ± 0.0012 and the protein stability index (genetic background: wild type) is 0.678 ± 0.055.
In the case of LGQAVVKAINFA [YBR277C C-terminal 12 aa], the protein stability index amounted to 0.6797 ± 0.0059 under setting [1] and 0.702 ± 0.041 (genetic background: wild type).
Taken in the same sequence, the figures for LHENQLLKWLSK [RRN5 C-terminal 12 aa] were 0.72567 ± 0.00036 and 0.7 ± 0.008.
Take LIDSYCLGGESR [YPL034W C-terminal 12 aa]: the protein stability index turned out to be 0.688 ± 0.018 under setting [1] and 0.697 ± 0.039 (genetic background: wild type).
On the same counts, the results for LIEKNFLSSHAG [YJR071W C-terminal 12 aa] are 0.7159 ± 0.0042 and 0.708 ± 0.022.
LIFQRKYTAKEF [DTR1 C-terminal 12 aa]: the protein stability index is, setting by setting: under setting [1], 0.6863 ± 0.004; (genetic background: wild type) 0.678 ± 0.035.
Regarding LIHNFNSRYCHE [LEE1 C-terminal 12 aa], the protein stability index was 0.725 ± 0.0078 under setting [1] and 0.691 ± 0.0088 (genetic background: wild type).
Taken in the same sequence, the figures for LINGTRIMNSIS [VPS33 C-terminal 12 aa] were 0.684 ± 0.01 and 0.532 ± 0.0095.
On the same counts, the results for LISFGMGNTQVI [CLN2 C-terminal 12 aa] are 0.699 ± 0.031 and 0.6846 ± 0.004.
As for “LITSHCCYWNKR [YBL039C-A C-terminal 12 aa]”, the protein stability index reads like this: under setting [1], 0.6928 ± 0.0067; (genetic background: wild type) 0.52 ± 0.033.
On the same counts, the results for LKKIATKFWGKH [TRK2 C-terminal 12 aa] are 0.697 ± 0.016 and 0.714 ± 0.066.
LKNYLEAQIAKK [YPR097W C-terminal 12 aa] came in with a protein stability index under setting [1] of 0.692 ± 0.03 and a protein stability index (genetic background: wild type) of 0.721 ± 0.016.
On the same counts, the results for LKPWEGRIYLVK [MAL12 C-terminal 12 aa] are 0.6483 ± 0.0018 and 0.697 ± 0.022.
Taken in the same sequence, the figures for LKQKALVAAKQS [YJR015W C-terminal 12 aa] were 0.679 ± 0.024 and 0.319 ± 0.03.
On the same counts, the results for LKSIYTSERITI [RAD61 C-terminal 12 aa] are 0.707 ± 0.04 and 0.667 ± 0.025.
With LKTPQEYESKAK [BOL1 C-terminal 12 aa], the protein stability index under setting [1] was determined as 0.702 ± 0.02 and the protein stability index (genetic background: wild type) came to 0.753 ± 0.069.
Regarding “LLAKQLLLLLLR [YER079C-A C-terminal 12 aa]”, the protein stability index by setting is: under setting [1], 0.33 ± 0.018; (genetic background: wild type) 0.342 ± 0.0063.
On the same counts, the results for LLEDEDRTYNYT [KCH1 C-terminal 12 aa] are 0.6892 ± 0.0059 and 0.718 ± 0.069.
Turning to LLHYQSWHFSIY [YJL007C C-terminal 12 aa], the protein stability index was determined as 0.707 ± 0.035 under setting [1] and 0.407 ± 0.026 (genetic background: wild type).
For the sequence LLLAGRKLSLDK [ARK1 C-terminal 12 aa], the protein stability index runs as follows: under setting [1], 0.694 ± 0.016; (genetic background: wild type) 0.715 ± 0.023.
On the same counts, the results for LLLQFPPYLPHD [LAG2 C-terminal 12 aa] are 0.75 ± 0.019 and 0.7442 ± 0.0048.
On the same counts, the results for “LLPLIYLINKSL [YMR013C-A C-terminal 12 aa]” are 0.622 ± 0.014 and 0.199 ± 0.022.
On the same counts, the results for LLRKHVFPSVPK [VFA1 C-terminal 12 aa] are 0.732 ± 0.026 and 0.738 ± 0.031.
As to LLSAILDPSKSK [MED11 C-terminal 12 aa], the protein stability index under setting [1] amounted to 0.709 ± 0.021 and the protein stability index (genetic background: wild type) amounted to 0.699 ± 0.046.
Taken in the same sequence, the figures for “LLSLPSSTLTKS [YIL068W-A C-terminal 12 aa]” were 0.703 ± 0.025 and 0.702 ± 0.0086.
LLTYFRKHVKDT [SCC2 C-terminal 12 aa]: the protein stability index runs as follows: under setting [1], 0.714 ± 0.043; (genetic background: wild type) 0.572 ± 0.054.
Taken in the same sequence, the figures for LLYPVKSESSTV [PDR16 C-terminal 12 aa] were 0.68 ± 0.013 and 0.676 ± 0.01.
For LMILGNFMPILN [ERT1 C-terminal 12 aa], the protein stability index was 0.6909 ± 0.0037 under setting [1] and 0.5655 ± 0.0049 (genetic background: wild type).
Take LPFQKLKHLIKK [MRX11 C-terminal 12 aa]: the protein stability index was found to be 0.707 ± 0.031 under setting [1] and 0.706 ± 0.046 (genetic background: wild type).
On the same counts, the results for LPLYYVYQCDMI [YDR094W C-terminal 12 aa] are 0.6642 ± 0.0046 and 0.643 ± 0.052.
The sequence “LPVSDSRCYYIL [YML031C-A C-terminal 12 aa]” registered a protein stability index under setting [1] of 0.6921 ± 0.0021 and a protein stability index (genetic background: wild type) of 0.343 ± 0.013.
In the case of LPYRMLIRMYPV [YEL014C C-terminal 12 aa], the protein stability index is, setting by setting: under setting [1], 0.5232 ± 0.0025; (genetic background: wild type) 0.5345 ± 0.0047.
LQTMSFLMNHLI [YJL032W C-terminal 12 aa] came in with a protein stability index under setting [1] of 0.6597 ± 0.0011 and a protein stability index (genetic background: wild type) of 0.23 ± 0.042.
On the same counts, the results for LRLKGNAKAPGA [CLC1 C-terminal 12 aa] are 0.70418 ± 0.00015 and 0.729 ± 0.012.
